# Data as given in patent publication US20100004431A1 (Xencor, published 2010).
# Where two headings read alike, the source gives them in different places.
# T1: CD25 (R&D systems cat. #223-2A/CF) (UniProt P01589 22-213, limits assumed)
# T1 construct: Bought soluble protein
# T1 sequence (looked up): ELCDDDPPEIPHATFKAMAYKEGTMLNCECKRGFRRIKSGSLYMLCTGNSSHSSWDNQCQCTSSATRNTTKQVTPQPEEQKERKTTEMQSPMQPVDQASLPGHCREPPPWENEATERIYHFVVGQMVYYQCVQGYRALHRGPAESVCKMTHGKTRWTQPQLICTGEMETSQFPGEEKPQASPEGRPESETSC
# B1: anti-CD25 H1L1 single variant VH I69M (antibody, IgG1, V domains shown)
# VH: QVQLVQSGAEVKKPGASVKVSCKASGYTFTSYRMHWVRQAPGQGLEWMGYINPSTGYTEYNQKFQGRVTMTADKSISTAYMELSRLRSDDTAVYYCARGGGVFDYWGQGTLVTVSS
# VL: QIVLTQSPATLSLSPGERATLSCRASSSISYMHWFQQKPGQSPQLLIYTTSNLASGVPARFSGSGSGTDYTLTISSLQPEDFAVYYCHQRSTYPLTFGSGTKLEIK
# notes: IgG1 format
# B2: anti-CD25 H0L0 (antibody, V domains shown)
# VH: QVQLQQSGAELAKPGASVKMSCKASGYTFTSYRMHWVKQRPGQGLEWIGYINPSTGYTEYNQKFKDKATLTADKSSSTAYMQLSSLTFEDSAVYYCARGGGVFDYWGQGTTLTVSS
# VL: QIVLTQSPAIMSASPGEKVTITCSASSSISYMHWFQQKPGTSPKLWIYTTSNLASGVPARFSGSGSGTSYSLTISRMEAEDAATYYCHQRSTYPLTFGSGTKLELK
# notes: Chimeric form of the anti-TAC antibody, in IgG1 format; also called chimeric anti-CD25 H0L0; anti-TAC H0L0
# B3: Anti-TNFα H1.103L1.33 (Fab, V domains shown)
# VH: EVQLVESGGGLVQPGGSLKLSCAASGFIFSNHWMNWVRQASGKGLEWVGEIRSKANNYATHYAASVKGRFTISRDDSKNTAYLQMNSLKTEDTAVYYCSRNYYGSTYDYWGQGTLVTVSS
# VL: EIVLTQSPDFQSVTPKEKVTITCRASQFIGSSLHWYQQKPDQSPKLLIKYASESFSGVPSRFSGSGSGTDFTLTINSLEAEDAATYYCQQSHSWPFTFGSGTKLEIK
# notes: Fab format; It has thirteen more mutations than anti-TNFα H1L1; also called anti-TNF H1.103L1.33
# B4: anti-VEGF H1.33L1.55 (Fab, V domains shown)
# VH: QVQLVQSGSELKKPGASVKVSCKASGYTFTNYGMNWVRQAPGQGLEWMGWINTYTGNPTYAQGFTGRFVFSLDTSVSTAYLQISSLKAEDTAVYYCAKYPHYYGSSHWYFDVWGAGTLVTVSS
# VL: DIQMTQSPSSLSASVGDRVTITCQASQDISNYLNWYQQKPGKAPKVLIYFASNLETGVPSRFSGSGSGTDYTLTISSLQPEDFATYYCQQYDNLPWTFGGGTKLEIK
# notes: Fab format, purified by Ni-NTA chromatography
# Tests used:
# [1] = target: T1, CD25 (R&D systems cat. #223-2A/CF); assay: SPR (Biacore), single variant in H1L1 background
# Procedure: (§1) Binding was measured by injection of two-fold serial dilutions of CD25 (0 nM to 50 nM; R&D systems) in buffer at 25° C. with a flow rate of 25-30 μL/min for 2 min followed by a dissociation phase of 4-5 min. Association rates (kₒₙ) and dissociation rates (koff) were calculated using a simple one-to-one Langmuir binding model (BIAcore Evaluation Software version 3.2). The equilibrium dissociation constant (Kd) was calculated as the ratio of koff/kₒₙ).
# [2] = target: T1, CD25 (R&D systems cat. #223-2A/CF); assay: Biacore (SPR); antibody captured on Protein A, CD25 injected
# Procedure: as §1
# [3] = target: T1, CD25 (R&D systems cat. #223-2A/CF); assay: Biacore blocking assay; antibody injected over CD25 coupled to a CM5 chip, then 100 nM rh-IL2; blocked ligand IL-2
# Procedure: The chip was regenerated after each cycle by injection of glycine buffer @ pH 1.5 for 30 sec at 10 μL/min.
# [4] = target: T1, CD25 (R&D systems cat. #223-2A/CF); assay: Biacore (SPR); antibody captured on Protein A, CD25 injected; remark: listed apart in the source
# Procedure: as §1
# [5] = target: T1, CD25 (R&D systems cat. #223-2A/CF); assay: SPR (Biacore), antibody captured on Protein A, CD25 injected; separate runs
# Procedure: as §1
# TNFα [6] = target: T2, TNFα (UniProt P01375 77-233); assay: SPR (Biacore), TNFα on CM5 chip, Fab injected
# T2 sequence (P01375 77-233 limits assumed): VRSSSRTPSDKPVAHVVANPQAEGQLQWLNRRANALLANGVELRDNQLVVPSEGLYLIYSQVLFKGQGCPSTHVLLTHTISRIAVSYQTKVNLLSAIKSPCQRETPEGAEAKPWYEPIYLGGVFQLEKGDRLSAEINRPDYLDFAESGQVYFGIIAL
# Procedure: (§2) For kinetic analysis of anti-TNFα antibodies, TNFα was coupled to an activated CM5 biosensor chip using standard NHS-EDC chemistry by injecting 200 nM TNFα at a flow rate of 2 μL/min for 10 min. […] For subsequent cycles, the chip was regenerated using pH4.0 acetate buffer. Association rates (kₒₙ) and dissociation rates (koff) were calculated using a simple one-to-one Langmuir binding model (BIAcore Evaluation Software version 3.2). The equilibrium dissociation constant (Kd) was calculated as the ratio of koff/kₒₙ.
# TNFα [7] = target: T2, TNFα; assay: SPR (Biacore), TNFα on CM5 chip, Fab injected; mean of two runs ± SD
# Procedure: as §2
# TNFα [8] = target: T2, TNFα; assay: Biacore (SPR); Fab injected over immobilized TNFα
# Procedure: as §2
# VEGF [9] = target: T3, VEGF (UniProt P15692-4 27-191, limits assumed); assay: Biacore (SPR); Fab injected over immobilized VEGF
# T3 sequence (P15692 other isoform, or with tags, fused parts or gaps limits assumed): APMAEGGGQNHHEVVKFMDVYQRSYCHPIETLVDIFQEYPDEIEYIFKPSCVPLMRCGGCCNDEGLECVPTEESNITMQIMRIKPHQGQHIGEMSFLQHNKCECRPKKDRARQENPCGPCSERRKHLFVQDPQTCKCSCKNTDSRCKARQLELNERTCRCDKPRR
# Procedure: (§3) For kinetic analysis of anti-VEGF antibodies, VEGF was coupled to an activated CM5 biosensor chip using standard NHS-EDC chemistry by injecting 200 nM VEGF at a flow rate of 2 μL/min for 10 min. […] Association rates (kₒₙ) and dissociation rates (koff) were calculated using a simple one-to-one Langmuir binding model (BIAcore Evaluation Software version 3.2). The equilibrium dissociation constant (Kd) was calculated as the ratio of koff/kₒₙ.
# VEGF [10] = target: T3, VEGF; assay: Biacore (SPR); Fab injected over immobilized VEGF; remark: listed apart in the source
# Procedure: as §3
# VEGF [11] = target: T3, VEGF; assay: SPR (Biacore), VEGF on CM5 chip, Fab injected
# Procedure: as §3
binder,measurement,setting,value
B1,fold increase in affinity against anti-CD25 H1L1,[1],2.4 fold
same,Kd,[2],130 pM
same,koff,[2],0.00026 s⁻¹
same,kon,[2],2e+06 M⁻¹ s⁻¹
B2,IC50 (read off the curve),[3],~40000 pM
same,Kd,[2],90 pM
same,koff,[2],0.00013 s⁻¹
same,kon,[2],1.6e+06 M⁻¹ s⁻¹
same,Kd,[4],260 pM
same,koff,[4],0.00018 s⁻¹
same,kon,[4],670000 M⁻¹ s⁻¹
same,Kd,[5],90 to 300 pM
B3,fold difference in affinity against the chimeric antibody anti-TNFα H0L0,TNFα [6],≤ 3 fold
same,Kd,TNFα [7],3100 pM
same,koff,TNFα [7],0.00092 s⁻¹
same,kon,TNFα [7],292000 M⁻¹ s⁻¹
same,Fold affinity change relative to H0L0,TNFα [8],-1.3 fold
B4,Fold change in Kd vs. H0L0,VEGF [9],-2.7 fold
same,Kd,VEGF [9],3800 pM
same,koff,VEGF [9],0.00028 s⁻¹
same,kon,VEGF [9],80000 M⁻¹ s⁻¹
same,Fold affinity change relative to H0L0,VEGF [10],-2.7 fold
same,fold difference in affinity against the chimeric antibody anti-VEGF H0L0,VEGF [11],≤ 3 fold
